Laboratory results: paper PMC5988928, “An alkaline and surfactant-tolerant lipase from Trichoderma lentiforme ACCC30425 with high application potential in the detergent industry” (AMB Express, 2018)

Assays:
Assay in all cases: purified protein
Type in all cases: biochemical, Trichoderma sp.
Settings in all cases: pH 9.5, 50 °C, 10 min, Tris-HCl
purified protein [1] = substrate: CCCCCCCCCCCC(=O)Oc1ccc([N+](=O)[O-])cc1
purified protein [2] = substrate: CCCCCCCCCC(=O)Oc1ccc([N+](=O)[O-])cc1
purified protein [3] = substrate: CCCCCCCC(=O)Oc1ccc([N+](=O)[O-])cc1
purified protein [4] = substrate: CCCCCCCCCCCCCCCC(=O)Oc1ccc([N+](=O)[O-])cc1
purified protein [5] = substrate: CCCC(=O)Oc1ccc([N+](=O)[O-])cc1
purified protein [6] = substrate: CCCCCCCCCCCCCC(=O)Oc1ccc([N+](=O)[O-])cc1

B1: TlLipA (Trichoderma sp.) (protein)
chain: AQGQVNVTIPSGNIMGSSVEDVEFFKGIPFADPPIGELRFKPPQTLSTHLGDFDATKKAKLCSQGPVFTVSSNPQVAPFALKAERESFGNPVPPENESEDCLTVTIHRPAGTEAGDDLPVLFYIFGGGFVIGGTSAAINDPTVLVQTGIDLGKPFIFAAVNYRVGGWGFMPGAEILRDGSANAGLLDQRKGLEWVADNIAAFGGDPSKVTIWGQSSGSISVFEQLVLYDGDNTYNGNPLFRGAIMNSGSVTPVDPVDSAKPQALYDHVVRVANCEGDDSLDCLRRLPNDHFAAAANSIPGLISYESLALSYLPRPDGEVLTASPHVLAREGKFPAVPMILASQEDEGTLFSFFQGDMGTTDIITDYLNSLYFTNTDRSLVKSFVETYSERLEDGSPYRTGDSKDLFYYPGKKRIASILGDIVFTLVRRWTLETIAEVSPETALWSSFASYNYKPLDIFGLGTKHGSDTEVFFARNNSDFPSITGRTYYINFVYNGDPNEGLDVNVTWLGWKEDRQLLWYNATENGYLADNFRNGSYNFIKEHIDSLIF
notes: secreted from Pichia pastoris GS115 (pPIC9, alpha-factor signal), no tag told; N-terminus AQGQVNVTIP from primer
Km (purified protein [1]): 1590 ± 420 µM | Vmax (purified protein [1]): 16.8 µmol/min/mg | kcat (purified protein [1]): 16.8 ± 2.4 s⁻¹ | kcat/Km (purified protein [1]): 10600 M⁻¹ s⁻¹ | Km (purified protein [2]): 350 ± 70 µM | Vmax (purified protein [2]): 12.5 µmol/min/mg | kcat (purified protein [2]): 12.5 ± 0.7 s⁻¹ | kcat/Km (purified protein [2]): 35800 M⁻¹ s⁻¹ | Km (purified protein [3]): 670 ± 230 µM | Vmax (purified protein [3]): 27.3 µmol/min/mg | kcat (purified protein [3]): 27.4 ± 4.4 s⁻¹ | kcat/Km (purified protein [3]): 41000 M⁻¹ s⁻¹ | Km (purified protein [4]): 4220 ± 1280 µM | Vmax (purified protein [4]): 4.8 µmol/min/mg | kcat (purified protein [4]): 4.8 ± 1 s⁻¹ | kcat/Km (purified protein [4]): 1140 M⁻¹ s⁻¹ | Km (purified protein [5]): 400 ± 70 µM | Vmax (purified protein [5]): 12.2 µmol/min/mg | kcat (purified protein [5]): 12.2 ± 0.8 s⁻¹ | kcat/Km (purified protein [5]): 30700 M⁻¹ s⁻¹ | Km (purified protein [6]): 3290 ± 1210 µM | Vmax (purified protein [6]): 4.3 µmol/min/mg | kcat (purified protein [6]): 4.3 ± 1 s⁻¹ | kcat/Km (purified protein [6]): 1320 M⁻¹ s⁻¹
